# The RNAGym collection of RNA variant scans (doi:10.7554/elife.80360)
# B1: HDV Ribozyme (parent)
# chain: GGCCGGCAUGGUCCCAGCCUCCUCGCUGGCGCCGGCUGGGCAACAUUCCGAGGGGACCGUCCCCUCGGUAAUGGCGAAUGGGACCCA
# Variants of: B1
# Assay: self-cleavage, relative activity (ratio to wild type); higher = more cleavage; co-transcriptional
row,Variant,self-cleavage
1,C7U A78G,0.375
2,G6A C26G,0.856
3,G38C G67C,0.157
4,C7A A70G,0.426
5,C7A U46C,0.453
6,G6A C21G,0.203
7,C7U G80A,0.164
8,A8C C33U,0.554
9,G5C C19A,0
10,A45U C85A,0.88
11,C14U G52A,0.973
12,G2C G38A,0.0747
13,G50C C63A,0.305
14,G11A C85U,0.787
15,C4G C75U,0.0396
16,C15G U47G,0.665
17,C7U G73C,0.224
18,C3A C64U,0.65
19,C32A U72G,0.178
20,U23C C48A,1.12
21,U27G A83U,0.791
22,U9C A83G,0.665
23,G52C C64G,0.739
24,G35U G55U,0.508

row,Variant,self-cleavage
1,G39C C85U,0.405
2,U12A U46G,0.104
3,C84A,0.895
4,C13G C57U,0.0426
5,C24G G29U,0.0692
6,U12A G76A,0.499
7,G10C U72C,0.289
8,G17A C57A,0.965
9,C41A G68U,0.561
10,U60G G68A,1.02
11,U37A A42G,0.0665
12,G40C C84G,0.128
13,G2C C44U,0.0453
14,C36G C57G,0.162
15,C75G G81C,0.0831
16,G50C C62G,0
17,C24U C86U,0.69
18,A51G G53U,0.795
19,G54U A77C,0.415
20,C14A C57G,0.72
21,U12G U65C,0.831
22,G68U A78G,0.639
23,G6A C49A,0.566
24,G31A G40C,0.144

row,Variant,self-cleavage
1,U12A G52C,0.453
2,C15U G59C,1.13
3,A71C G82A,0.111
4,G38C C66U,0.153
5,C7G G54A,0.302
6,C63G C85U,0.92
7,C57U G81A,0.415
8,C33A G80U,0.136
9,C7G G34A,0.115
10,C19G C32U,0.0302
11,G6C C32G,1.1
12,G6U U9C,0.465
13,U27C C49A,0.776
14,G25A C57U,0.232
15,C4U A87C,0.708
16,G17C G59U,0.342
17,G25U A43G,0.0573
18,C22A G52A,0.292
19,C18A A43U,0.0339
20,C7U C62U,0.831
21,U65A C86U,0.937
22,C13A C36G,0.192
23,C33G A77U,0.106
24,U47A A83U,0.287

row,Variant,self-cleavage
1,U46C A51G,0.639
2,G10U A77G,0.424
3,C21G G25C,0.0489
4,C18G A78U,0.0723
5,C18U G52C,0.774
6,C21G C85G,0.219
7,A43G C63U,0.615
8,U12A A56G,0.196
9,U9A U72G,0.787
10,C61A A87U,0.978
11,G34U C44U,0.0241
12,C19G G67U,0.058
13,C62U G80C,0.281
14,A83U,0.523
15,C18G U46A,0.145
16,A78G A83U,0.0437
17,U20A C66G,0.107
18,U23A C24G,0.113
19,C62G G80U,0.185
20,G2A G10C,0.105
21,C49G G53A,0.475
22,U12G C32G,0.0755
23,U12C C22A,0.115
24,G29A C86U,0.0314

row,Variant,self-cleavage
1,U9A A16C,0.712
2,G25U A83G,0.0978
3,C22A G55A,0.284
4,G29C G50U,0
5,G11C C41G,0.712
6,A70C G76C,0.796
7,U60C U65C,1.01
8,A16C G81A,0.489
9,G52A C86G,1.04
10,C36A U79A,0.0615
11,U46G G50U,0.458
12,G35A C58G,0.594
13,G81A A87C,0.455
14,G1U C86G,0.289
15,C19U G68C,0.148
16,G2U G17A,0
17,G31U U60C,0.639
18,U60G C86U,0.959
19,G6A C64U,0.739
20,G40C C58A,0.151
21,C44U A87U,0.718
22,U72G A87C,0.709
23,C61U U79A,0.88
24,C64A U69C,0.782

row,Variant,self-cleavage
1,U20G G67A,0.156
2,A8C C41U,0.748
3,G35C C66U,0.229
4,A43G U72G,0.554
5,G10A C63G,0.566
6,U20A U23G,0
7,G55U G82U,0.426
8,G5U C36U,0.104
9,U27G C57A,1.22
10,C15A C24U,0.0811
11,C26G C86G,0.886
12,A70G A83G,0.692
13,G6C C63A,0.582
14,G82A A87U,0.443
15,G35C U65G,0.314
16,U65A A87G,0.877
17,C36U C41U,0.602
18,A43C A51U,0.324
19,C41G C75G,0.219
20,G35U C57A,0.517
21,C44U A77U,0.111
22,U65C G73C,0.283
23,C7U C49G,0.665
24,C33A A83G,0.144

row,Variant,self-cleavage
1,C48G C85G,0.875
2,G17U C24A,0.116
3,C26U C75A,0.154
4,A43G U79G,0.199
5,G50C C75G,0
6,G59A C66U,0.849
7,C36U G38C,0.113
8,G25C U65C,0.0536
9,U47C C75U,0.0791
10,G5A C58A,0.253
11,G34A C57A,0.13
12,G53A U60A,0.938
13,G1U G6U,0.429
14,G2U G74C,0
15,G17A G50U,0.815
16,G25U C84U,0.262
17,C15U C36G,0.128
18,C21G G54U,0.0875
19,C7G A43G,0
20,A8C C24U,0.396
21,C18A A77G,0.0354
22,G17C U72G,0.161
23,U20G G73U,0.136
